Numbering of substitutions follows the chain as printed. One block for each binder: values may come before it. Ends that are not written are not given here.
Legend:
[1] = molecular target: T1, PACAP38 peptide fragment 4-27 (human); assay: SPR (Biacore 3000) solution competition: antibody pre-incubated 1:200 with the fragment, then injected over immobilised PACAP38
T1 construct: also called peptide No. 9
T1 peptide: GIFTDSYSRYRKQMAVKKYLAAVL
Method: (§1) In this experiment, various peptide fragments of PACAP38 were incubated with each of the six antibodies (mAb1, mAb2, mAb3, mAb4, mAb5, and mAb6) described in Example 2 and evaluated for their ability to inhibit binding of the antibodies to full-length PACAP38 immobilized on the sensor-chip. The binding epitopes for each of the antibodies were deduced from the set of peptides that were able to inhibit the binding of each antibody to full-length PACAP38.
(§2) Each of the six anti-PACAP antibodies was incubated at a 1:200 molar ratio (Ab: peptide fragment) with each of the peptide fragments in Table 9 at an ambient temperature for 2 hours prior to analysis. […] A second control containing 6.5 nM antibody was prepared in sample diluent to be used as the untreated control sample for each antibody. Full-length PACAP38, buffer, and each peptide fragment were also tested to evaluate non-specific binding to the immobilized PACAP38 surface.

[2] = molecular target: T2, PACAP38 peptide fragment 6-35 (human); assay: as above
T2 construct: also called peptide No. 4
T2 peptide: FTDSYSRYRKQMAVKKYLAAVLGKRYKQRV
Method: as §1, §2

[3] = molecular target: T3, PACAP38 peptide fragment 6-36 (human); assay: as above
T3 construct: also called peptide No. 12
T3 peptide: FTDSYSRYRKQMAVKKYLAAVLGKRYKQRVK
Method: as §1, §2

[4] = molecular target: T4, PACAP38 peptide fragment 6-37 (human); assay: as above
T4 construct: also called peptide No. 3
T4 peptide: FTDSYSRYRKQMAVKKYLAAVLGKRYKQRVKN
Method: as §1, §2

[5] = molecular target: T5, PACAP38 peptide fragment 6-38 (human, not fully specified); assay: as above
T5 construct: also called peptide No. 11
T5 peptide: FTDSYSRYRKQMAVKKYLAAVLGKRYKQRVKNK
Method: as §1, §2

[6] = molecular target: T6, PACAP38 peptide fragment 6-20 (human); assay: as above
T6 construct: also called peptide No. 13
T6 peptide: FTDSYSRYRKQMAVK
Method: as §1, §2

[7] = molecular target: T7, vasoactive intestinal peptide (VIP) (human); assay: ELISA screen of B-cell culture supernatant; VIP at 100 ng/mL
T7 construct: also called human VIP
T7 peptide: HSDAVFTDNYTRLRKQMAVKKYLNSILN

[8] = molecular target: T8, carboxy terminal PACAP38 peptide (amino acids 28-38) (human, ends and bridges not checked); assay: ELISA screen of B-cell culture supernatant
T8 construct: also called C-terminal Peptide; C-terminal PACAP peptide
T8 peptide: GKRYKQRVKNK

[9] = molecular target: T9, PACAP38 peptide fragment 14-38 (human, not fully specified); assay: SPR (Biacore 3000), solution competition with the peptide for antibody binding to immobilised full-length PACAP38; % inhibition
T9 construct: also called peptide No. 7
T9 peptide: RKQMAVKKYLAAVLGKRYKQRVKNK
Method: (§3) The binding epitopes of anti-PACAP antibodies were evaluated by using the Biacore 3000 biosensor-based instrument (GE Healthcare USA). The Biacore 3000 instrument utilizes surface plasmon resonance (SPR) technology to measure mass increase on the sensor-chip surface. The binding interactions are measured in real-time and recorded as Response Units (RU). Each binding profile (cycle) is stored in a “sensorgram” in real-time. Generally, Biacore technology entails immobilizing a ligand of interest on to a flow-cell of the sensor-chip via a coupling chemistry. The analyte (e.g. putative binding partner to the ligand of interest) is injected across the immobilized ligand allowing it to bind to the ligand-immobilized surface. The magnitude of the response is directly proportional to the mass increase on the immobilized surface due to the binding of the analyte.
as §1, §2

31-38 [10] = molecular target: T10, 31-38 (ends and bridges not checked); assay: as above
T10 construct: also called PACAP38 peptide fragment 31-38; peptide No. 5
T10 peptide: YKQRVKNK
Method: as §3, §1, §2

[11] = molecular target: T11, PACAP38 peptide fragment 11-27 (human); assay: as above
T11 construct: also called peptide No. 8
T11 peptide: SRYRKQMAVKKYLAAVL
Method: as §3, §1, §2

30-37 = molecular target: T12, 30-37; assay: as above
T12 construct: also called PACAP38 peptide fragment 30-37; peptide No. 19
T12 peptide: RYKQRVKN
Method: as §3, §1, §2

[12] = molecular target: T13, PACAP38 peptide fragment 34-38 (human, ends and bridges not checked); assay: as above
T13 construct: also called peptide No. 17; RVKNK
T13 peptide: RVKNK
Method: as §3, §1, §2

[13] = molecular target: T14, PACAP38 peptide fragment 27-38 (human, ends and bridges not checked); assay: SPR (Biacore 3000) solution competition against immobilised PACAP38
T14 construct: also called peptide No. 6
T14 peptide: LGKRYKQRVKNK

[14] = molecular target: T15, amino terminal PACAP38 peptide (amino acids 1-13) (human); assay: ELISA screen of B-cell culture supernatant; N-terminal peptide at 500 ng/mL; ELISA screen of B-cell culture supernatant (Example 1); N-terminal peptide 500 ng/mL; optical density
T15 construct: also called N-terminal Peptide; N-terminal PACAP peptide
T15 peptide: HSDGIFTDSYSRY
Description: (§4) Rabbits were immunized with human PACAP38 peptide ([…]; SEQ ID NO: 1). Monoclonal antibodies were generated from the immunized rabbits using the Selected Lymphocyte Antibody Method (SLAM) as described in Babcook et al., Proc. Natl. Acad. Sci. USA, Vol. 93: 7843-7848, 1996. Briefly, B cells were harvested from spleens from the immunized rabbits and expanded in culture. The supernatant from the expanded B-cell cultures was initially screened for binding to an amino terminal PACAP38 peptide ([…]; SEQ ID NO: 5) and a carboxy terminal PACAP38 peptide ([…]; SEQ ID NO: 4) using an ELISA assay. From the initial screen, 2,935 N-terminal and/or C-terminal binders were identified. The affinity of these antibodies for full-length human PACAP38 (SEQ ID NO: 1) was assessed by ELISA assay.

human PACAP27 = molecular target: T16, human PACAP27 (human, not fully specified); assay: cell-based or functional assay
T16 peptide: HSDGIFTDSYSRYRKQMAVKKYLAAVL

[15] = molecular target: T8, carboxy terminal PACAP38 peptide (amino …); assay: ELISA screen of B-cell culture supernatant; C-terminal peptide at 500 ng/mL
Description: as §4

[16] = molecular target: T17, full-length human PACAP38 (human, not fully specified); assay: ELISA screen of B-cell culture supernatant; full-length PACAP38 at 10 ng/mL
T17 construct: Corresponds to amino acids 132-169 of the precursor (NP 001108.2); The description says natural PACAP38 is C-terminally amidated; also called Full-length PACAP38
T17 peptide: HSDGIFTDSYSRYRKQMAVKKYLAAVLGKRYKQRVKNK
Description: as §4

[17] = molecular target: T17, full-length human PACAP38; assay: cell-based or functional assay
[18] = molecular target: T14, PACAP38 peptide fragment 27-38; assay: SPR (Biacore 3000), solution competition: antibody pre-incubated 2 h with the peptide at 1:200 molar ratio (Ab:peptide), then injected over immobilised full-length PACAP38; readout % inhibition of antibody binding (filing counts >50 % as reactive)
Method: as §3, §1, §2

[19] = molecular target: T7, vasoactive intestinal peptide (VIP); assay: ELISA screen of B-cell culture supernatant
[20] = molecular target: T15, amino terminal PACAP38 peptide (amino …); assay: SPR (Biacore 3000), solution competition with the peptide for antibody binding to immobilised full-length PACAP38; % inhibition
Method: as §3, §1, §2

[21] = molecular target: T6, PACAP38 peptide fragment 6-20; assay: as above
Method: as §3, §1, §2

[22] = molecular target: T15, amino terminal PACAP38 peptide (amino …); assay: ELISA screen of B-cell culture supernatant; N-terminal peptide at 500 ng/mL
31-38 [23] = molecular target: T10, 31-38; assay: SPR (Biacore 3000), solution competition: antibody pre-incubated 2 h with the peptide at 1:200 molar ratio (Ab:peptide), then injected over immobilised full-length PACAP38; readout % inhibition of antibody binding (filing counts >50 % as reactive)
Method: as §3, §1, §2

[24] = molecular target: T18, PACAP38 peptide fragment 26-33 (human); assay: SPR (Biacore 3000) solution competition against immobilised PACAP38
T18 construct: also called peptide No. 2
T18 peptide: VLGKRYKQ

binding result [1]: binds
binding result [2]: binds
binding result [3]: binds
binding result [4]: binds
binding result [5]: binds
binding result [6]: binds
Optical Density [7]: 0.24 OD
binding result [8]: no binding (tested: 500 ng/mL)
Optical Density [14]: 3.68 OD
IC50: inhibition of PACAP27 (10 pM)-induced activation of human PAC1 receptor, cAMP assay in SH-SY5Y (CRL-2266) cells, POC versus antibody concentration (human PACAP27): 3.7 nM
Optical Density [15]: 0.05 OD
Optical Density [16]: 2.09 OD
IC50: inhibition of PACAP38 (10 pM)-induced activation of human PAC1 receptor, cAMP assay in SH-SY5Y (CRL-2266) cells, POC versus antibody concentration [17]: 12 nM
B1: mAb4 (antibody, V domains shown)
VH: QSVEESGGRLVTPGTPLTLTCTASGIDLSSYAMIWVRQAPGEGLEYIGFIDAGDGNTYYASWAKGRFTISKTSTTVDLKITSPTTEDTATYFCARGDPGWSNGFALWGQGTLVTVSS
VL: DIVMTQTPASVSGAVGGTVTIKCQASQSIRNELSWYQQKPGQPPKLLIYKASTLASGVPSRFSGSGFGTEFTLTISGVQCDDAATYYCQNNYGTRRNNYVFPFGGGTEVVVKG
notes: Rabbit monoclonal antibody (SLAM), recombinant; also called monoclonal anti-PACAP antibody 4; 4 (c47)
binding result [9]: no binding (tested: 1:200 molar ratio (Ab:peptide))
binding result (31-38 [10]): no binding (tested: 1:200 molar ratio (Ab:peptide))
binding result [11]: no binding (tested: 1:200 molar ratio (Ab:peptide))
binding result (30-37): no binding (tested: 1:200 molar ratio (Ab:peptide))
binding result [12]: no binding (tested: 1:200 molar ratio (Ab:peptide))
binding result [13]: no binding (tested: 1:200 molar ratio (Ab: peptide fragment))

Optical Density [7]: 0.07 OD
binding result [18]: binds
binding result [19]: no binding (tested: 100 ng/mL)
Optical Density [15]: 3.59 OD
Optical Density [22]: 0.06 OD
B2: mAb3 (antibody, V domains shown)
VH: QSLEESGGGLVQPGASLTLTCTASGFSFSSNYYMCWVRQAPGKGLEWIACIFTGSSGSTYYASWAKGRFTISKTSSTTVTLHVTSLTAADTATYFCARDRALSVVGYFYAAYYFDFWGPGTLVTVSS
VL: DVVMTQTPSPVSAAVGGTVTINCRASEDIESFLAWYQQKPGQPPKLLMSRTSTLESGVPSRFKGSGSGTEFTLTISDLECADAATYYCQCTDGSSSSSSYGWDAFGGGTEVVVKG
notes: Rabbit monoclonal antibody (SLAM), recombinant; also called monoclonal anti-PACAP antibody 3; 3 (c89)
binding result [20]: no binding (tested: 1:200 molar ratio (Ab:peptide))
binding result (30-37): no binding (tested: 1:200 molar ratio (Ab:peptide))
binding result [12]: no binding (tested: 1:200 molar ratio (Ab:peptide))
binding result [21]: no binding (tested: 1:200 molar ratio (Ab:peptide))

Optical Density [7]: 0.08 OD
binding result (31-38 [23]): binds
binding result [18]: binds
binding result [19]: no binding (tested: 100 ng/mL)
Optical Density [15]: 5.33 OD
Optical Density [22]: 0.05 OD
B3: mAb1 (antibody, V domains shown)
VH: QSLEESGGDLVKPGASLTLTCKASGIAFSNDYMCWVRQAPGKGLEWIACIFTGSSGSTYYASWAKGRFTISKTSSTTVTLQMTSLTAADTATYFCARDRAISVLGYFYAAYFFDFWGPGTLVTVSS
VL: B2 VL with M48I, P59S, T72I
notes: Rabbit monoclonal antibody (SLAM), cloned, recombinantly expressed and purified; also called monoclonal anti-PACAP antibody 1; 1 (c20)
binding result [20]: no binding (tested: 1:200 molar ratio (Ab:peptide))
binding result [21]: no binding (tested: 1:200 molar ratio (Ab:peptide))
binding result [24]: no binding (tested: 1:200 molar ratio (Ab: peptide fragment))
